Source: the supplement of paper PMC9170038

Test system: MS2 coat protein
Assay: apparent KD of MS2 coat protein; designed switch direction (-1 OFF switch, 1 ON switch): 1; higher = weaker reporter binding
Outline: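 On Illumina chips, designed RNA switches with common flanks were made by stalled E. coli RNA polymerase. Titrations with SNAP-549-labelled MS2 coat protein, doubling from 0.7 or 1.5 nM to 3 µM, were done with no input, with 200 uM small-molecule ligand, or with an oligonucleotide input. Apparent KD is the median per design over clusters, from curve fits of normalised cluster fluorescence.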

[1] = Eterna round: R95, input ligand: FMN 200 uM
[2] = Eterna round: R95, input ligand: microRNA oligo, concentration not stated
[3] = Eterna round: R95, input ligand: none
[4] = input ligand: microRNA oligo, concentration not stated

Sequence | apparent KD of MS2 coat protein [1] | apparent KD of MS2 coat protein [2] | apparent KD of MS2 coat protein [3] | apparent KD of MS2 coat protein [4] | apparent KD of MS2 coat protein (input ligand: FMN 200 uM) | apparent KD of MS2 coat protein (input ligand: none)
UGUUAACAUGAGGAUCACCCAUGUCAAAUGAAUCGAGGAUAUGGGAAGGAAGAAGAGAAACUAGAAGGCGAAGUUG [Altered State 1-4 - Jieux - Same State 1] (puzzle: Same State 1) | 835 nM | 56.8 nM | 216 nM |  |  | 
UGUUGUAAUACAGGAUAUAUAUUAUUUUUAUUUAUAGAAGGGUAAUCACAUGAGGAUCACCCAUGUAUAUACGAGGAAGAAGAG [JMF's solution 3] (Eterna round: R96, puzzle: Same State NG 1) |  |  |  | 139 nM |  | 
UGUUGUAUUACAGGAUAUCUAGUAUUUUUAAUUAGAGAAGGGUAUUCACAUGAGGAUCACCCAUGUAUAUACGAGGAAGUUGUG [JMF's solution 48] (Eterna round: R96, puzzle: Same State NG 1) |  |  |  | 34 nM |  | 
UGUUGUAUUACAGGAUAUCUAGUAUUUUUGUUUAGAGAAGGGUAUUCACAUGAGGAUCACCCAUGUAUAUACGAGGAAGUUGUG [JMF's solution 47] (Eterna round: R96, puzzle: Same State NG 1) |  |  |  | 42.3 nM |  | 
UGUUGUAUUACAGGAUAUCUAUGAUUUUUAUCUAGAGAAGGGUAUUCACAUGAGGAUCACCCAUGUAUAUACGAGGAAGUUGUG [JMF's solution 69] (Eterna round: R96, puzzle: Same State NG 1) |  |  |  | 25.1 nM |  | 
UGUUGUAUUACAGGAUAUCUAUUAGUGUUAUUUAGAGAAGGGUAUUCACAUGAGGAUCACCCAUGUAUAUACGAGGAAGUUGUG [JMF's solution 90] (Eterna round: R96, puzzle: Same State NG 1) |  |  |  | 37.4 nM | 65.1 nM | 57.4 nM
UGUUGUAUUACAGGAUAUCUAUUAUUUUUUUUUAGAGAAGGGUAUUCACAUGAGGAUCACCCAUGUAUAUACGAGGAAGUUGUG [JMF's solution 23] (Eterna round: R96, puzzle: Same State NG 1) |  |  |  | 45.5 nM |  | 
UGUUGUAUUACAGGAUAUCUGUUAUUUUUAUUUAGAGAAGGGUAUUCACAUGAGGAUCACCCAUGUAUAUACGAGGAAGUUGUG [JMF's solution 7] (Eterna round: R96, puzzle: Same State NG 1) |  |  |  | 40.8 nM |  | 
UGUUGUUAAUUAGGAUAUGGUCACAUGAGGAUCACCCAUGUAAUGUCGAUGCUAUGUGGAUUUGAUCAGAAGGAAUGGCUAACA [SameState NG2 #97] (Eterna round: R96, puzzle: Same State NG 2) |  |  |  | 242 nM | 105 nM | 341 nM
UUAAGCCGCGGGCAGGAUAUGUAUUAAAAUACAUGAGGAUCACCCAUGUGCAGGUGUAACACCUGACAGAAGGGCCAAUCGCGGC [Soteed - 5] (puzzle: Same State 2) | 21.2 nM | 116 nM | 229 nM |  |  | 
UUAAUGAAGUAAGGAUAUACAUGAGGAAUUCUCGUAGAAGGUACUAUACAUGAGGAUCACCCAUGUGCCGGUCAGAAGACUGGA [Mat - Same State NG 1 - JL mod - D11] (Eterna round: R96, puzzle: Same State NG 1) |  |  |  | 302 nM | 454 nM | 415 nM
UUAAUUUAUUGAGGAUAUUAUGUCGACUGAGUUGACAUGAGGAUCACCCAUGUGAGAAGUGGUAUUAAGAAGGCAAUAUUCAUA [JR_SSNG2_Sub087] (Eterna round: R96, puzzle: Same State NG 2) |  |  |  | 118 nM | 39.8 nM | 115 nM
UUACUCAUGUAAGGAUAUGCAGCCGAAACGGCUGCAGAAGGUACUAUAAUACAUGAGGAUCACCCAUGUAAAAUAAAUAAAGUU [Mat - Same State NG 1 - JL mod - D97] (Eterna round: R96, puzzle: Same State NG 1) |  |  |  | 32 nM | 29.1 nM | 35.9 nM
UUACUCAUGUAAGGAUAUGCAGCCGUUUCGGCUGCAGAAGGUACUAUAAUACAUGAGGAUCACCCAUGUCUCUAUUAUUUAGUG [salish99_SSNG1_r04_922] (Eterna round: R96, puzzle: Same State NG 1) |  |  |  | 39.9 nM |  | 
UUACUCAUGUAAGGAUAUGCAGCCGUUUCGGCUGCAGAAGGUACUAUAAUACAUGAGGAUCACCCAUGUCUUUUUAAUUUAGAC [JL SSNG1 1.29] (Eterna round: R96, puzzle: Same State NG 1) |  |  |  | 30.7 nM | 56.2 nM | 47.8 nM
UUAUAACAUGAGGAUCACCCAUGUCAUCUAAGUCGAGGAUAUGGGCAAAUAAUAUAAGAACCAGAAGGCGAAUAUU [Mat - Same State 1 - Mod of UCT - D46] (puzzle: Same State 1) | 106 nM | 147 nM | 232 nM |  |  | 
